One data set deals with hTRF2-MYB (Homo sapiens, UniProt Q15554 488-542). In words: EMSA; 150 nM probe; 50 mM Tris-HCl pH 8.0, 6.5% glycerol, 20 mM NaCl, 5 mM DTT, 150 nM probe, 10 ul, 30 min on ice; 4-20% TBE native gel. The note with it: protein: recombinant; tags: none after Ulp1 cleavage of 10xHis-Smt3; label: 32P (T4 PNK). (A gel shift assay detects complexes by their altered migration in electrophoresis.)

For data set [1], the target named is T1, mTERB1-MYB (Mus musculus, UniProt Q8C0V1 707-760).
T1 sequence: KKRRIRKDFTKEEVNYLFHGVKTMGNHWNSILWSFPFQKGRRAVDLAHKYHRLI
The data set is described as above. The note with it: protein: recombinant; tags: 6xHis (not cleaved); label: 32P (T4 PNK).

Data set [2] deals with T2, hTERB1-MYB (Homo sapiens, UniProt Q8NA31 666-719).
T2 sequence: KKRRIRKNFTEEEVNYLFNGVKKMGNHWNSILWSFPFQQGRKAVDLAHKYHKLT
The data set is described as above. The following applies: protein: recombinant; tags: none after Ulp1 cleavage of His-Smt3; label: 32P (T4 PNK).

Data set [3] addresses T1, mTERB1-MYB. In words: EMSA; 2-8 uM protein, 150 nM probe; 50 mM Tris-HCl pH 8.0, 6.5% glycerol, 20 mM NaCl, 5 mM DTT, 150 nM probe, 10 ul, 30 min on ice; 4-20% TBE native gel. The following applies: protein: recombinant; tags: 6xHis (not cleaved); label: 32P (T4 PNK).
Data set [4] concerns the target T2, hTERB1-MYB. Described as above. The following applies: protein: recombinant; tags: none after Ulp1 cleavage of His-Smt3; label: 32P (T4 PNK).

Chain of hTRF2-MYB (Q15554 488-542): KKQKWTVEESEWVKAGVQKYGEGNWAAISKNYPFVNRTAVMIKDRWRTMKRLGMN

B1: dsDNA_telo_8-mer (TTAGGG)8 (dsDNA)
DNA 1: TTAGGGTTAGGGTTAGGGTTAGGGTTAGGGTTAGGGTTAGGGTTAGGG
DNA 2: CCCTAACCCTAACCCTAACCCTAACCCTAACCCTAACCCTAACCCTAA
As for B1, the binding result with hTRF2-MYB was “binds”; in the data set with mTERB1-MYB [1], “no binding”; with hTERB1-MYB [2] it was “no binding”.

B2: dsDNA_scrambled_8-mer (dsDNA)
DNA 1: GACAGCGATGAGAACTAATTCGTGTGCTTGCTGACTGATATCGTGACT
DNA 2: AGTCACGATATCAGTCAGCAAGCACACGAATTAGTTCTCATCGCTGTC
With B2, the binding result with mTERB1-MYB [3] and in the data set with hTERB1-MYB [4] was “no binding” in each case.
